{"source": "paper PMC3319311", "about": "(Nature, 2012)", "key": {"[1]": {"target": "T1, human OTUB1 (OTU domain-containing ubiquitin aldehyde-binding protein 1) (human, UniProt Q96FW1 1-271)", "T1 sequence (Q96FW1 whole entry, the tested form may be a part)": "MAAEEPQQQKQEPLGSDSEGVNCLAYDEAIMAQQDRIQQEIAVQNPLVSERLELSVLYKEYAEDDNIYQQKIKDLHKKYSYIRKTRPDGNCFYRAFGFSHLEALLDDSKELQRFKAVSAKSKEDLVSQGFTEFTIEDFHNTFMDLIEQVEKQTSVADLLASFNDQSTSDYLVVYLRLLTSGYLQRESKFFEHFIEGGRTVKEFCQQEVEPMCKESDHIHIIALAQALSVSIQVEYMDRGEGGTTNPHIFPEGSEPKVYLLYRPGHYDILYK", "experiment": "fluorescence polarisation"}, "hOTUB1 F193W": {"target": "hOTUB1 F193W (human, UniProt Q96FW1 1-271, F193W)", "sequence (Q96FW1 whole entry F193W)": "as the sequence (Q96FW1 whole entry, the tested form may be a part) above, with F193W counted along it", "experiment": "fluorescence polarisation"}, "hOTUB1 F193R": {"target": "hOTUB1 F193R (human, UniProt Q96FW1 1-271, F193R)", "sequence (Q96FW1 whole entry F193R)": "as the sequence (Q96FW1 whole entry, the tested form may be a part) above, with F193R counted along it", "experiment": "fluorescence polarisation"}, "hOTUB1 H217W": {"target": "hOTUB1 H217W (human, UniProt Q96FW1 1-271, H217W)", "sequence (Q96FW1 whole entry H217W)": "as the sequence (Q96FW1 whole entry, the tested form may be a part) above, with H217W counted along it", "experiment": "fluorescence polarisation"}, "[2]": {"target": "T2, Caenorhabditis elegans OTUB1 (Caenorhabditis elegans, UniProt Q9XVR6)", "T2 sequence": "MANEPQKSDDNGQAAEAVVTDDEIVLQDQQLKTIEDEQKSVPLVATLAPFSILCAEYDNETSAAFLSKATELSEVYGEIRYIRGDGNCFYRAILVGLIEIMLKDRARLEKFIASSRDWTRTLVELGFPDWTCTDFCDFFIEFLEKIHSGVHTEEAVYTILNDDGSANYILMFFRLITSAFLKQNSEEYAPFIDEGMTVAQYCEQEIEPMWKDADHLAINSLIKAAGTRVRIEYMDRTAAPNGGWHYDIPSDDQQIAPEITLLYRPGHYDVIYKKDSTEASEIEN", "experiment": "fluorescence polarisation"}, "His6-tagged human OTUB1": {"target": "His6-tagged human OTUB1 (human, UniProt Q96FW1 1-271)", "sequence (Q96FW1 whole entry)": "as the sequence (Q96FW1 whole entry, the tested form may be a part) above", "experiment": "pull-down"}, "hOTUB1Δ15": {"target": "hOTUB1Δ15 (human, UniProt Q96FW1 16-271)", "sequence (Q96FW1 16-271, stated change not applied)": "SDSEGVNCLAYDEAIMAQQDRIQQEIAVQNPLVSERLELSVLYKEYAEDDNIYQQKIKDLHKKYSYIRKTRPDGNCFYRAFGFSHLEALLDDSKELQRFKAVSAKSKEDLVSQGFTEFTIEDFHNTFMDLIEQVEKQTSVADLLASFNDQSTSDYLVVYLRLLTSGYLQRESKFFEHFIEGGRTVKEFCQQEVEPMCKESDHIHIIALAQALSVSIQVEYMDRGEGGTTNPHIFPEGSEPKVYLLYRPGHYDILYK", "experiment": "pull-down"}, "[3]": {"target": "T1, human OTUB1 (OTU domain-containing …)", "experiment": "SEC"}}, "data": [{"binder": "fluorescein-labeled human UBC13 (enzyme, labeled with fluorescein-5-maleimide) MAGLPRRIIKETQRLLAEPVPGIKAEPDESNARYFHVVIAGPQDSPFEGGTFKLELFLPEEYPMAAPKVRFMTKIYHPNVDKLGRICLDILKDKWSPALQIRTVLLSIQALLSAPNPDDPLANDVAEQWKTNEAQAIETARAWTRLYAMNNI", "values": [{"measurement": "Kd", "setting": "[1]", "value": 7.04, "unit": "µM"}, {"measurement": "binding result", "setting": "hOTUB1 F193W", "value": "binds"}, {"measurement": "binding result", "setting": "hOTUB1 F193R", "value": "binds"}, {"measurement": "binding result", "setting": "hOTUB1 H217W", "value": "binds"}, {"measurement": "Kd", "setting": "[2]", "value": 58.5, "unit": "µM"}]}, {"binder": "UBC13^C87S~Ub oxyester (complex) chain 1: MAGLPRRIIKETQRLLAEPVPGIKAEPDESNARYFHVVIAGPQDSPFEGGTFKLELFLPEEYPMAAPKVRFMTKIYHPNVDKLGRISLDILKDKWSPALQIRTVLLSIQALLSAPNPDDPLANDVAEQWKTNEAQAIETARAWTRLYAMNNI chain 2: […]", "values": [{"measurement": "binding result", "setting": "His6-tagged human OTUB1", "value": "binds"}, {"measurement": "binding result", "setting": "hOTUB1Δ15", "value": "binds"}]}, {"binder": "human UBC13 (UBE2N) (enzyme) MAGLPRRIIKETQRLLAEPVPGIKAEPDESNARYFHVVIAGPQDSPFEGGTFKLELFLPEEYPMAAPKVRFMTKIYHPNVDKLGRICLDILKDKWSPALQIRTVLLSIQALLSAPNPDDPLANDVAEQWKTNEAQAIETARAWTRLYAMNNI", "values": [{"measurement": "binding result", "setting": "[3]", "value": "binds"}]}]}
